We go through 28 molecules from patent US20150011730A1 (UNIVERSITY OF SOUTH CAROLINA, published 2015).

The target in test [1] is CDK4/Cyclin D1, full-length recombinant, N-terminal GST tag on both proteins (UniProt P11802 2-303; P24385 1-295). The test can be described thus: cell-based or functional assay.
In test [2] the target is T1, CDK2/cyclin A (as used in the binding assay) (UniProt P24941 1-298; P20248 1-432). The test can be described thus: FP binding assay.
The target of test [3] is T1, CDK2/cyclin A (as used in the binding …). The experiment in a line: binding assay.
Test [4] addresses T2, CDK4/cyclin D1 (as used in the binding assay) (UniProt P11802 1-303; P24385 1-295).
T2 construct: kept apart from the GST-tagged kinase-assay complex m2; also called CDK4/D1
The experiment in a line: FP binding assay.

Test [5] has as its target T3, CDK2/Cyclin A2, full-length recombinant, N-terminal GST tag on both proteins (UniProt P24941 1-298; P20248 1-432). The experiment in a line: cell-based or functional assay.
In test [6] the target is T1, CDK2/cyclin A (as used in the binding …).
Test [7] concerns the target T2, CDK4/cyclin D1 (as used in the binding …).
In test [8] the target is T3, CDK2/Cyclin A2, full-length …. The experiment in a line: cell-based or functional assay. The source holds these as a separate data set.
Test [9] deals with T2, CDK4/cyclin D1 (as used in the binding …). This is another data set of the same source.
Another test concerns the target CDK2/E (UniProt P24941 1-298; P24864 1-410). The test can be described thus: cell-based or functional assay.

Where two headings read alike, the source gives them in different places. Non-standard residues stand in square brackets, D forms with d. No end group written: not given here. *: point of attachment. X1 = 1‑(3,5-dichlorophenyl)‑5‑methyl‑1H‑1,2,4‑triazole‑3‑carbonyl, Cc1nc(C(=O)*)nn1-c1cc(Cl)cc(Cl)c1; Pyrazole N‑cap (R1 OCH3, R2 H, R3 H, R4 CH3, W N, X N, Y C, Z C) = not defined here; Pyrazole N‑cap (R1 Cl, R2 H, R3 Cl, R4 CH3, W N, X N, Y C, Z C) = not defined here; Pyrazole N‑cap (R1 Cl, R2 H, R3 H, R4 CH3, W N, X N, Y C, Z C) = not defined here; Pyrazole N‑cap (R1 F, R2 H, R3 H, R4 CH3, W N, X N, Y C, Z C) = not defined here; Pyrazole N‑cap (R1 H, R2 H, R3 H, R4 CH3, W N, X N, Y C, Z C) = not defined here; benzoic acid Scaffold III (R1 H, R2 CHEM-US-00025 C6H13NO) = not defined here; benzoic acid Scaffold III (R1 H, R2 CHEM-US-00026 C5H12N2) = not defined here; 3‑phenoxybenzylamide = c1ccc(Oc2cccc(CN*)c2)cc1; Ala(2-furyl) = N[C@@H](Cc1ccco1)C(=O)O; Cha = N[C@@H](CC1CCCCC1)C(=O)O; β3hL = CC(C)C[C@H](N)CC(=O)O

T2 sequence (P11802 whole entry, chain 1 of 2): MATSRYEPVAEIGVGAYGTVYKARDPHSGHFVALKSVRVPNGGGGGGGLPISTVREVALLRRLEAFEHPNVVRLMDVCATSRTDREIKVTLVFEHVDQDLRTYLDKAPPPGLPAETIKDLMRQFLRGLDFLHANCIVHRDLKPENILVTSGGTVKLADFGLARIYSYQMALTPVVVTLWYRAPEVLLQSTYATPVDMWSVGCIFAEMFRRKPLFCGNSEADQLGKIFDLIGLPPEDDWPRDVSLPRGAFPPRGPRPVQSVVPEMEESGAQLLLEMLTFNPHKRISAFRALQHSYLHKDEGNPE
T2 sequence (P24385 whole entry, chain 2 of 2): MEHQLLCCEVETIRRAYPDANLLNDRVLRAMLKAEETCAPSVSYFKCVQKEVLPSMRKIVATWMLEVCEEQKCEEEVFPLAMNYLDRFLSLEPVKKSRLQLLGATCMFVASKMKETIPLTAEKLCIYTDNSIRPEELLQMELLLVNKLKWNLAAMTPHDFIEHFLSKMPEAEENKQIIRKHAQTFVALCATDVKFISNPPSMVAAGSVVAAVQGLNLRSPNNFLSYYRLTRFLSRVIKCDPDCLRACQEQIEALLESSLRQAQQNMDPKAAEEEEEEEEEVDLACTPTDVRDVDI
Chain of CDK4/Cyclin D1, full-length recombinant, N-terminal GST tag on both proteins (P11802 2-303, chain 1 of 2): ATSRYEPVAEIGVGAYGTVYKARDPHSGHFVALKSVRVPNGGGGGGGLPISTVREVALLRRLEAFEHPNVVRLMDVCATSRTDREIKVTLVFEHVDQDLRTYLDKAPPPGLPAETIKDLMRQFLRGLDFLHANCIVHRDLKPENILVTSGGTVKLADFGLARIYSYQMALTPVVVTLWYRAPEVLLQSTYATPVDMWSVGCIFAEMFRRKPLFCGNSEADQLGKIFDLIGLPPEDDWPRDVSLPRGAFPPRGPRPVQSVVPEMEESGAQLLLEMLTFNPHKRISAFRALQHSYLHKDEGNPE
Chain of CDK4/Cyclin D1, full-length recombinant, N-terminal GST tag on both proteins (P24385 whole entry, chain 2 of 2): as the sequence (P24385 whole entry, chain 2 of 2) above

Turning to PAKRRLFG-NH2, the “IC50, kinase assay” value in test [1] is 6.7 µM.
In test [2], {Pyrazole N‑cap (R1 Cl, R2 H, R3 Cl, R4 CH3, W N, X N, Y C, Z C)}-RLIF (reading uncertain; also: cap structure given only by scaffold parameters) [SCCP 5763 (Pyrazole N-cap ligated to RLIF)] came in with an IC50 of 21.8 µM. This counts as double-digit micromolar.

B1: 1-(3,5-dichlorophenyl)-5-methyl-1H-1,2,4-triazole-3-carbonyl-RLIF (peptide)
peptide: X1-RLIF
notes: also called SCCP 5773; 3,5-dichlorophenyl triazole
Turning to B1, the IC50 in [3] was 12 µM; in test [2], 4 µM; in test [4] it was 27 µM.

B2: HAKRRLIX3 (peptide)
peptide: HAKRRLIA
HELM: PEPTIDE1{H.A.K.R.R.L.I.[O=C([C@H](Cc1ccsc1)N[*:1])[*:2]].[am]}$$$$V2.0; N-terminus assumed
SMILES: CC[C@H](C)[C@H](NC(=O)[C@H](CC(C)C)NC(=O)[C@H](CCCNC(=N)N)NC(=O)[C@H](CCCNC(=N)N)NC(=O)[C@H](CCCCN)NC(=O)[C@H](C)NC(=O)[C@@H](N)Cc1c[nH]cn1)C(=O)N[C@@H](Cc1ccsc1)C(N)=O
For the molecule B2, in [5], the “IC50, kinase assay” value amounted to 25 µM.
Turning to {Pyrazole N‑cap (R1 Cl, R2 H, R3 H, R4 CH3, W N, X N, Y C, Z C)}-RLIF (reading uncertain; also: cap structure given only by scaffold parameters) [SCCP 5764 (Pyrazole N-cap ligated to RLIF)], the values for the IC50 in test [2] and in test [4] were 11.9 µM and 45 µM, respectively.

B3: HAKRRLIX4 (peptide)
peptide: HAKRRLIA
HELM: PEPTIDE1{H.A.K.R.R.L.I.[O=C([C@H](CC1CCC1)N[*:1])[*:2]].[am]}$$$$V2.0; N-terminus assumed
SMILES: CC[C@H](C)[C@H](NC(=O)[C@H](CC(C)C)NC(=O)[C@H](CCCNC(=N)N)NC(=O)[C@H](CCCNC(=N)N)NC(=O)[C@H](CCCCN)NC(=O)[C@H](C)NC(=O)[C@@H](N)Cc1c[nH]cn1)C(=O)N[C@@H](CC1CCC1)C(N)=O
Turning to B3, the “IC50, kinase assay” value in test [5] turned out to be 25 µM.

B4: SCCP 5852 (Imidazole N-cap ligated to RLIF) (peptide)
peptide: {2‑(3-fluorophenyl)‑1H‑imidazole‑4‑carbonyl}-RLIF
notes: also called 2-(3-fluorophenyl)-1H-imidazole-4-carboxamide
Take B4: the IC50 in test [2] turned out to be 34.3 µM; in test [4] it was 67 µM.

B5: SAKRR{bLeu}3TAG-OH (peptide)
peptide: SAKRRLAG
HELM: PEPTIDE1{S.A.K.R.R.[CC(C)C[C@@H](CC(=O)[*:2])N[*:1]].[O=C([C@H](Cc1ccsc1)N[*:1])[*:2]].G}$$$$V2.0; N-terminus assumed
SMILES: CC(C)C[C@@H](CC(=O)N[C@@H](Cc1ccsc1)C(=O)NCC(=O)O)NC(=O)[C@H](CCCNC(=N)N)NC(=O)[C@H](CCCNC(=N)N)NC(=O)[C@H](CCCCN)NC(=O)[C@H](C)NC(=O)[C@@H](N)CO
notes: C-terminal free acid (-OH); also called SCCP 5813
The molecule B5 yielded an IC50 in [6] of 0.31 µM.
Turning to {Pyrazole N‑cap (R1 H, R2 H, R3 H, R4 CH3, W N, X N, Y C, Z C)}-RLIF (reading uncertain; also: cap structure given only by scaffold parameters) [SCCP 5762 (Pyrazole N-cap ligated to RLIF)], the IC50 in test [4] was found to be 53.8 µM.
For SAKRNLFGM-NH2, the “IC50, kinase assay” value in test [1] was 146 µM.
On to HAKRRLI[2‑thienylalanine]-NH2 [HAKRRLIX2], for which the “IC50, kinase assay” value in test [5] amounted to 3.6 µM.
As for {Triazole N‑cap (R1 H, R2 H, R3 H, R4 H, W N, X N, Y N, Z C)}-RLIF (also: cap structure given only by scaffold parameters) [SCCP 5843 (Triazole N-cap ligated to RLIF)], the IC50 in [2] amounted to 16.2 µM; in test [4], 48.7 µM.

B6: SAKRRL3TA G-OH (peptide)
peptide: SAKRRLXG
HELM: PEPTIDE1{S.A.K.R.R.L.[O=C([C@H](Cc1ccsc1)N[*:1])[*:2]].G}$$$$V2.0; N-terminus assumed
SMILES: CC(C)C[C@H](NC(=O)[C@H](CCCNC(=N)N)NC(=O)[C@H](CCCNC(=N)N)NC(=O)[C@H](CCCCN)NC(=O)[C@H](C)NC(=O)[C@@H](N)CO)C(=O)N[C@@H](Cc1ccsc1)C(=O)NCC(=O)O
notes: C-terminal free acid (-OH); also called SCCP 5814
B6 returned an IC50 in [6] of 0.43 µM.
In the case of {Pyrazole N‑cap (R1 F, R2 H, R3 H, R4 CH3, W N, X N, Y C, Z C)}-RLIF (reading uncertain; also: cap structure given only by scaffold parameters) [SCCP 5771 (Pyrazole N-cap ligated to RLIF)], the values for the IC50 in test [2] and in test [4] were 29.6 µM and 69.6 µM, respectively.

B7: HAKRRLIX7 (peptide)
peptide: HAKRRLIA
HELM: PEPTIDE1{H.A.K.R.R.L.I.[O=C([C@H](Cc1cccnc1)N[*:1])[*:2]].[am]}$$$$V2.0; N-terminus assumed
SMILES: CC[C@H](C)[C@H](NC(=O)[C@H](CC(C)C)NC(=O)[C@H](CCCNC(=N)N)NC(=O)[C@H](CCCNC(=N)N)NC(=O)[C@H](CCCCN)NC(=O)[C@H](C)NC(=O)[C@@H](N)Cc1c[nH]cn1)C(=O)N[C@@H](Cc1cccnc1)C(N)=O
In the case of B7, the “IC50, kinase assay” value in test [5] worked out at 29 µM.
Take XRLIF (Cit at position 1 = citrulline; C-terminal amide, also called SCCP 5812) [CitRLIF]: in test [1], the “IC50, kinase assay” value stood at 179 µM. In [7], this molecule yielded a 50% inhibitory concentration (IC50) of 72.3 µM.
As to RKLIF (dimethyllysine at position 2 (lysine with the epsilon amino group methylated), also called SCCP 5918) [R(dimethyllys)LIF], the IC50 is 5.4 µM in [6] and 72.2 µM in test [7].

B8: SCCP 5774 (Triazole N-cap ligated to RLIF) (peptide)
peptide: {Triazole N‑cap, 4‑chlorophenyl triazole (R1 H, R2 Cl, R3 H, R4 CH3, W N, X N, Y N, Z C)}-RLIF
modifications: also: cap structure given only by scaffold parameters
notes: also called 4-chlorophenyl triazole; 4-chloro phenyl triazole
Take B8: the figures for the IC50 in test [3], in test [2] and in test [4] were 25 µM, 11.5 µM and 11.3 µM, respectively.
Take Arg-Arg-[β3hL]-{3‑phenoxybenzylamide} [Arg-Arg-β-homoleucyl-3-phenoxybenzylamid]: the “IC50, kinase assay” value in test [8] is over 100 µM. Further, in test [1], the “IC50, kinase assay” value stood at 60 µM and the Potency ratio was determined as 20.7 ratio.
On to HAKTRLIF-NH2, for which, in test [8], the “IC50, kinase assay” value amounted to 50 µM and the “Potency ratio vs native HAKRRLIF” value amounted to 38.5 ratio. Moreover, in [1], the “IC50, kinase assay” value is 25 µM and the “Potency ratio vs native HAKRRLIF” value was found to be 16.7 ratio.
Turning to HAKRRLI[Cha]-NH2 (not fully specified, also called HAKRRLIX6; HAKRRLI{CHA}) [HAKRRLIR6], the “IC50, kinase assay” value in test [5] turned out to be 58 µM. Further, the values for the half-maximal inhibitory concentration (IC50) in test [6] and in test [7] were 0.25 µM and 0.26 µM, respectively.
For {benzoic acid Scaffold III (R1 H, R2 CHEM-US-00026 C5H12N2)}-RLIF (reading uncertain; also: cap structure given only by scaffold parameters) [SCCP 5850 (benzoic acid N-cap-RLIF)], the “fold enhancement of activity vs unsubstituted benzoic acid” value in test [9] came out at 9 fold.
In the case of HAKRRLI[Ala(2-furyl)]-NH2 [HAKRRLIX1], the “IC50, kinase assay” value in test [5] was 6.1 µM; in the test with CDK2/E it was 1.3 µM.
With RXLIF (Cit at position 2 = citrulline; C-terminal amide, also called SCCP 5831) [RCitLIF], the IC50 in test [7] stood at 46.5 µM.
Regarding RRLNF (pfF at position 5 = p-fluorophenylalanine; C-terminal amide, also called SCCP 540) [RRLNpfF], the IC50 in [7] is 8 µM.
On to {benzoic acid Scaffold III (R1 H, R2 CHEM-US-00025 C6H13NO)}-RLIF (not fully specified (C-terminus); reading uncertain) [SCCP 5851 (benzoic acid N-cap-RLIF)], for which, in test [9], the “fold enhancement of activity vs unsubstituted benzoic acid” value was 26 fold.
As for SAKRALFGM-NH2, the “IC50, kinase assay” value in test [1] was 68 µM.
Molecule {Pyrazole N‑cap (R1 OCH3, R2 H, R3 H, R4 CH3, W N, X N, Y C, Z C)}-RLIF (reading uncertain; also: cap structure given only by scaffold parameters) [SCCP 5766 (Pyrazole N-cap ligated to RLIF)] returned an IC50 in test [2] of 64.1 µM.

As usually defined, the IC50 is the concentration needed to halve the response being measured. Read a low IC50 as inhibition by little substance.
